Target: the molecule itself
Assay: crystal structure; native-SAD at 5 keV with a helium path, 18 microcrystals, space group R3, 2.6 Å; crystals grown by sitting drop at 4°C in 0.1 M HEPES pH 7.8, 1 mM ZnSO4, 27–29% PEG 400, protein in β-OG

B1: TehA (natural protein)
chain: MNITKPFPLPTGYFGIPLGLAALSLAWFHLENLFPAARMVSDVLGIVASAVWILFILMYAYKLRYYFEEVRAEYHSPVRFSFIALIPITTMLVGDILYRWNPLIAEVLIWIGTIGQLLFSTLRVSELWQGGVFEQKSTHPSFYLPAVAANFTSASSLALLGYHDLGYLFFGAGMIAWIIFEPVLLQHLRISSLEPQFRATMGIVLAPAFVCVSAYLSINHGEVDTLAKILWGYGFLQLFFLLRLFPWIVEKGLNIGLWAFSFGLASMANSATAFYHGNVLQGVSIFAFVFSNVMIGLLVLMTIYKLTKGQFFLK
notes: TehA, a bacterial homolog of the plant nitrate/chloride channel SLAC1; construct as described by Chen et al. (2010); The printed length of 314 residues may differ from the length of the UniProt entry; also called membrane protein TehA; source: E. coli BL21(DE3) pLysS, purified (IMAC, size-exclusion chromatography); not shown: His tag, C-terminal, cleaved
Q: How did the “stoichiometry N” value turn out when B1 was run?
A: 3
